Measured values taken from publication PMC10636607 (Cell Reports, 2023).

Legend:
[1] = target: T1, biotinylated C-terminal αTSR domain of P. falciparum circumsporozoite protein (P. falciparum, UniProt Q7K740); experiment: BLI; details: both partners purified
T1 construct: also called P. falciparum CSP

[2] = target: biotinylated influenza hemagglutinin (HA) from H1N1 A/California/07/2009 (Influenza A virus A/California/07/2009 …, UniProt C3W5X2, strain, biotinylated); experiment: BLI; details: both partners purified

T1 sequence (Q7K740 310-375): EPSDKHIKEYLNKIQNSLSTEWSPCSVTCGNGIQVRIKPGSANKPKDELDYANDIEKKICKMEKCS

Binder	binding result [1]	binding result [2]
Fab234 (WT) (Fab, V domains shown) VH: EVQLVESGGGLVKPGGSLRLSCAASGFNFSTHIMNWVRQAPGKGLEWVSSISSSGTYIYYADSMKGRFTISRDNPKNSLYLQMNSLRAEDTAVYYCARARGFIQFHYYMDVWGKGTTVAVSS VL: SYVLTQPPSVSVAPGKTARITCGGNNIGSKSVHWHQQRPGQAPVLVVYDDKIRPSGIPERFSGSNSGNTATLIISRVEAGDEADYYCQVWHSSSDPVVFGGGTKLTVL	binds	
5J8 Fab (WT) (Fab, V domains shown, source: ExpiCHO cells, transiently co-transfected, purified (CaptureSelect CH1-XL)) VH: EVQLVESGPGLVKPSDILSLTCAVSGYSISSNYYWGWIRQPPGKGLEWIGSIYHSGSTYYKPSLESRLGISVDTSKNQFSLKLSFVSAADTAVYYCARHVRSGYPDTAYYFDKWGQGTLVTVSS VL: SYVLTQPPSVSVAPGETARISCGGNNIGTKVLHWYQQTPGQAPVLVVYDDSDRPSGIPERFSGSNSGNTATLTISRVEVGDEADYYCQVWDISTDQAVFGGGTKLTVL		binds
